Measured values published in the supplement of paper PMC9732359.
± gives the uncertainty stated by the source.

Assay: protein stability index of a GFP-peptide fusion (yeast GPS) (PSI 1-4); higher = more stable; sorted into four equal gates, so the index is relative within each strain
Conditions: pdr5∆
How it was run: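 Tiled 17-residue yeast protein peptides were fused downstream of GFP in a plasmid that also expresses Cherry, and the pooled library was carried in yeast. Mid-log cultures in leucine-free medium were sorted into four equal gates by GFP/Cherry fluorescence ratio, and plasmids from each gate were PCR-amplified and Illumina-sequenced, with reads assigned to strains by barcodes. The protein stability index for each peptide was each gate's read frequency times its gate number, summed.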

Sequence | protein stability index
LKNTKYFQQTTIDWVEA [PRP8] | 2.96 ± 0.08
LKPVDKLKPMNIERKQT [SIN4] | 3.05 ± 0.11
LKTFNGSLALLKLSMAD [POP4] | 2.33 ± 0.067
LKVRKGHIAKLMATEYQ [RPB2] | 2.33 ± 0.13
LKWIDTASKFGKGRFQT [RPL3] | 3.06 ± 0.094
LLDVKLAIDNMYILGMC [YCG1] | 1.51 ± 0.051
LLDVVKGTEASNDIIDK [YDL116W/NUP84] | 2.51 ± 0.14
LLHETNDSFKGLITNKM [PRP8] | 2.8 ± 0.071
LLHNHLKSIESLKLENS [SMC2] | 1.82 ± 0.11
LLIATNLKEYNKFMSIF [SRB8] | 1.82 ± 0.089
LLISDTESNELIQKLQN [IRR1] | 2.85 ± 0.084
LLKYSNETKKRNFLETV [RPL1A] | 2.72 ± 0.23
LLNKNTGNNLYDRNSNN [SWI1] | 2.85 ± 0.06
LLPLVVSNISCLTGTVA [ECM29] | 1.38 ± 0.034
LLQGGAKVVVTTSRFSK [FAS2] | 2.43 ± 0.068
LLSIKLPGKVNTKEEFA [SNF5] | 1.82 ± 0.083
LLSKKHGQLKLSIQYMI [RPN5] | 1.96 ± 0.053
LLTCYELEKKYHGNECE [SRB8] | 3 ± 0.061
LLVKFIKFFWNNTHVGR [YLR018C/POM34] | 2.48 ± 0.085
LLVVIFKKTLRSRISSP [SRB4] | 1.66 ± 0.094
LMKKACYVGLLTAIPIL [SNU114] | 1.45 ± 0.036
LMYATDWQMMTSPVTGA [CSL4] | 3.21 ± 0.2
LNAINNAEKTGKRQVLL [RPS22B] | 3.24 ± 0.078
LNFSTTAPANTTDANGS [MED2] | 2.08 ± 0.051
LNIGLGAVGLKDLTLCR [YCS4] | 2.41 ± 0.1

Sequence | protein stability index
LNLDEIVACELILSGDT [YJL039C/NUP192] | 2.7 ± 0.084
LNLNNSELQPQNRSLQE [SNF2] | 3.31 ± 0.057
LNPNEYFSVTTARRNVS [SWI3] | 1.67 ± 0.082
LNQIATLKIHLKKFLQE [IRR1] | 1.91 ± 0.22
LNQLDGFETSKNIKIIM [RPT6] | 2.62 ± 0.22
LNRIKKYLLTQRVFKPV [PRP8] | 2.25 ± 0.072
LPEQLKSGKFCSHCGCV [SNM1] | 3.11 ± 0.15
LPIYDSLMSSQNKLFYI [SIR3] | 2.01 ± 0.14
LPKIKTVRKSIACVLTV [RPL35A] | 2.79 ± 0.18
LPKVRYNVEKVKRLMDF [NSL1] | 2.38 ± 0.065
LPLNKPRLEKLINEILL [RGR1] | 2.33 ± 0.041
LPTTVVSNPGDNPPPAD [MED2] | 2.95 ± 0.052
LPTVGFDFIKDNETPSK [YOR098C/NUP1] | 3.2 ± 0.056
LPVKEFQIIDTLLPGLQ [RPS2] | 1.83 ± 0.059
LPVKHPELFESLGIAQP [RPT6] | 3.01 ± 0.039
LPVNIRRIIQNAQQTFH [RPO21] | 2.01 ± 0.05
LQIESVTKETVHPRKSY [PRP8] | 3.02 ± 0.13
LQIGDVVERHLEDGDVV [RPO31] | 3.43 ± 0.095
LQKQILTVENKLQFETD [SMC1] | 2.37 ± 0.052
LQKVENQTIKEAKDAII [YIL149C/MLP2] | 3.18 ± 0.047
LQMYSKIRRHPNIMLIF [FAS1] | 2.01 ± 0.042
LQRDLFIRLPHWPLNWY [RGR1] | 2.15 ± 0.061
LQVSEKDLFELERYYKE [ARP7] | 3.23 ± 0.077
LQWHAMIELICSSATVP [AAR2] | 1.69 ± 0.073
LQYANNAVISHANAAAV [SIN4] | 1.99 ± 0.041

Sequence | protein stability index
LRDHALSLTAFTKNEEK [ITC1] | 1.76 ± 0.047
LREAPADYWTHAYRDVL [SNF6] | 2.7 ± 0.1
LREEIFIANEGVHTGQF [RPL2A] | 2.84 ± 0.074
LREFRITHNTNITDNLF [GRR1] | 1.28 ± 0.15
LRIVTHLAICLDIINPG [YDL116W/NUP84] | 1.38 ± 0.083
LRKQYSAIDEEIEELID [SMC3] | 2.98 ± 0.2
LRLDGHTKSDERSELLR [SNF2] | 3.18 ± 0.084
LRLGRGINPNTFRIFHN [YDL088C/ASM4] | 1.88 ± 0.071
LRLPFSAAMSIDKLSDV [PRP8] | 2.42 ± 0.038
LRLRISRKRNEEEDAKN [RPL31A] | 2.39 ± 0.17
LRLTEQKSPKIRDPLTQ [RPC82] | 1.66 ± 0.041
LRNKIAGYTTHLMKRIQ [RPS17A] | 3.19 ± 0.13
LRSRLQQQQQQQQQTSP [SNF5] | 2.95 ± 0.058
LRTVKEVQFGLFSPEEV [RPO21] | 2.98 ± 0.081
LRVDEVQGKNLLTNFHG [RPS1A] | 3.42 ± 0.055
LRYYKNIWLNNKIINWE [NUT1] | 2.67 ± 0.087
LSDNAKTLHSQMMSKGI [RPC34] | 3.32 ± 0.098
LSDVAFYVQDVYKDNLS [RPO31] | 1.7 ± 0.12
LSGLAQRKTNGASNGDD [BRN1] | 3.29 ± 0.17
LSINEKDFVTMAIEIIN [YCG1] | 2.38 ± 0.077
LSKMRDSVLQLASFEKT [RPO31] | 2.97 ± 0.079
LSLTAVPSFLRPDITMY [GRR1] | 2.34 ± 0.045
LSNPSNQNICTSVTRRS [GRR1] | 2.49 ± 0.052
LSRLSTASKIIVIDVDY [MED1] | 2.3 ± 0.067
LSRYVKWPEYVRVQRQK [RPL8A] | 2.67 ± 0.13

Sequence | protein stability index
LSSYQKKIIKCDEHMGL [PRE5] | 2.37 ± 0.13
LSTLPAGKSLVSKSEPK [QCR2] | 3.27 ± 0.1
LTADARSMIEHARTAAV [PUP2] | 2.87 ± 0.22
LTEAVEDGPRPFKVFLD [RPL5] | 3.11 ± 0.061
LTEEELKTRYVGRQDPK [RPN11] | 3.36 ± 0.13
LTFILGQLLSVKFLVYQ [YML031W/NDC1] | 2.14 ± 0.12
LTFVSVDEELGPSIYKT [SCL1] | 1.94 ± 0.05
LTGEAEIEQPVTTFVFT [FAS1] | 2.98 ± 0.067
LTHVDLIEKFLRYNPLE [RPB10] | 3.29 ± 0.12
LTIFDSVDESARIKDAF [YJL039C/NUP192] | 3.07 ± 0.094
LTIVTCKQFPKLSCIQL [SRB8] | 1.86 ± 0.058
LTKKKNEEINKKSLEED [SEM1] | 3.31 ± 0.11
LTKYIRSKNLIFNGETL [GRR1] | 2.43 ± 0.06
LTNGVTEHVRQNAKLLA [RRP6] | 1.88 ± 0.073
LTVIEKLDSKKILPTDI [SRP68] | 3 ± 0.12
LTYLYEMKNIRGPYLVI [SNF2] | 1.32 ± 0.04
LVAKLKKVKSASKKSGG [SMC4] | 2.62 ± 0.085
LVDENTDYLYRRLHDEN [YCS4] | 2.64 ± 0.048
LVDNLNAEVVAGNIKCR [BRR2] | 1.67 ± 0.07
LVDVMTTQGGLTSVTRH [RPO21] | 2.38 ± 0.072
LVEARSLGHQTSLITAV [MTR3] | 1.97 ± 0.067
LVEPSKVGQFDQVLNLC [FAS1] | 2.41 ± 0.09
LVFCKHITSVPISAVLR [GRR1] | 1.72 ± 0.05
LVISLAATNETFENINS [IRR1] | 2.4 ± 0.13
